US20240262922A1 (Merck KGaA, published 2024)
Numbering of substitutions follows the chain as printed. Values belong to the binder of their own block, whether it stands above or below them.

Legend:
[1] = biological target: T1, AVI-GST-His6-hOX40L (human, UniProt P23510 51-183); assay: cell-based or functional assay
T1 sequence: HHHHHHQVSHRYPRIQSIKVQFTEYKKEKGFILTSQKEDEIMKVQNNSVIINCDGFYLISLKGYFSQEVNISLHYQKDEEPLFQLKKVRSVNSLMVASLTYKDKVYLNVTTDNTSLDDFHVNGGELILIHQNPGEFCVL

[2] = biological target: T2, recombinant human OX40L protein (R&D Systems, cat. #1054-OX) (human, UniProt P23510 51-183); assay: SPR steady state, Biacore T200; OX40L immobilised on CM5, FcFab in solution
T2 construct: Bought soluble recombinant protein; also called rhOX40L; recombinant soluble OX40L
T2 sequence: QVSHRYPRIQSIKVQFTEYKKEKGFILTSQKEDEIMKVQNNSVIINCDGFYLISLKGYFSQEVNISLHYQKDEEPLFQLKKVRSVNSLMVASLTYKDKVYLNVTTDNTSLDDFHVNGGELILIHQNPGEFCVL
Description: Recombinant OX40L proteins (human OX40L protein, R&D systems, cat. #1054-OX; cynomolgus monkey OX40L, Novoprotein cat. #CP72) were immobilized onto Biacore CM5 sensor chips and anti-OX40L antibodies were bound to this surface at a range of concentrations. The response at steady state was measured with a Biacore T200 instrument (GE Healthcare) and plotted against the concentration of antibody and fit to a 1:1 binding model. The steady state KD was determined as the antibody concentration at a response equal to half the maximal response (Rₘₐₓ).
As with the IgG clones, binding affinity to human OX40L was determined for all twelve FcFabs using steady state affinity assay as described in section 1.1.7 of Example 1. […]

[3] = biological target: T2, recombinant human OX40L protein (R&D …); assay: cell-based or functional assay

OX40L neutralization/OX40-HEK Reporter IC50 [1]: 0.0054 µM
Kd [2]: 0.0278 µM
B1: 98C01 (FcFab) (antibody)
heavy: EPKSSDKTHTCPPCPAPPVAGPSVFLFPPKPKDTLMISRTPEVTCVVVDVSHEDPEVKFNWYVDGVEVHNAKTKPREEQYNSTYRVVSVLTVLHQDWLNGKEYKCAVSNKALPSSIEKTISKAKGQPREPQVYTLPPSREEMTKNQVSLTCLVKGFYPSDIAVEWESNGQPENNYKTTPPVLDSDGSFFLYSKLTVDKSRWQQGNVFSCSVMHEALHNHYTQKSLSLSPGAGGGGSGGGGSGGGGSQVQLQESGPGLVKPSETLSLTCTVSGGSISSSSYYWGWIRQPPGKGLEWIGGIGSVDYSGNTYYKPSLKSRVTISVDTSKNQFSLKLSSVTAADTAVYHCARHRGIYFFDYWGQGTLVTVSSASTKGPSVFPLAPSSKSTSGGTAALGCLVKDYFPEPVTVSWNSGALTSGVHTFPAVLQSSGLYSLSSVVTVPSSSLGTQTYICNVNHKPSNTKVDKRVEPKSC
light: SYELTQPPSVSVALGQTARITCGGNNIENKNVHWYQQKPGQAPVLVIYRDSNRPSGIPERFSGSNSGNTATLSINRAQAGDEADYYCQVWDSNTVVFGGGTKLTVLGQPKAAPSVTLFPPSSEELQANKATLVCLISDFYPGAVTVAWKADSSPVKAGVETTTPSKQSNNKYAASSYLSLTPEQWKSHKSYSCQVTHEGSTVEKTVAPTECS

Primary T cell activation assay IC50 [3]: 0.0053 µM
OX40L neutralization/OX40-HEK Reporter IC50 [1]: 0.0057 µM
Kd [2]: 0.033 µM
B2: 98E10 (FcFab) (antibody)
heavy: EPKSSDKTHTCPPCPAPPVAGPSVFLFPPKPKDTLMISRTPEVTCVVVDVSHEDPEVKFNWYVDGVEVHNAKTKPREEQYNSTYRVVSVLTVLHQDWLNGKEYKCAVSNKALPSSIEKTISKAKGQPREPQVYTLPPSREEMTKNQVSLTCLVKGFYPSDIAVEWESNGQPENNYKTTPPVLDSDGSFFLYSKLTVDKSRWQQGNVFSCSVMHEALHNHYTQKSLSLSPGAGGGGSGGGGSGGGGSQLQLQESGPGLVKPSETLSLTCTVAGASVSSSSYYWGWIRQSPGKGLEWIGTINYGGSTYHNPSLKRRVTVSVDTSKNQFSLKLTSVTAADTAVYYCARHRGIYHFDYWGQGTLVTVSSASTKGPSVFPLAPSSKSTSGGTAALGCLVKDYFPEPVTVSWNSGALTSGVHTFPAVLQSSGLYSLSSVVTVPSSSLGTQTYICNVNHKPSNTKVDKRVEPKSC
light: B1 light with P8L, K38M, S73T, L103V

Primary T cell activation assay IC50 [3]: 0.0156 µM
OX40L neutralization/OX40-HEK Reporter IC50 [1]: 0.0055 µM
Kd [2]: 0.0331 µM
B3: 68F03 (FcFab) (antibody)
chain 1: EPKSSDKTHTCPPCPAPPVAGPSVFLFPPKPKDTLMISRTPEVTCVVVDVSHEDPEVKFNWYVDGVEVHNAKTKPREEQYNSTYRVVSVLTVLHQDWLNGKEYKCAVSNKALPSSIEKTISKAKGQPREPQVYTLPPSREEMTKNQVSLTCLVKGFYPSDIAVEWESNGQPENNYKTTPPVLDSDGSFFLYSKLTVDKSRWQQGNVFSCSVMHEALHNHYTQKSLSLSPGAGGGGSGGGGSGGGGSQLQLQESGPGLVKPSETLSLTCTVSGGSIDTSSQYWAWIRQPPGKGLEWIGGIYFSGSTYQNPSLKSRVTTSVDTSKNQFSLRLSSMTAADTAVYYCARHRGIYFFDYWGQGTLVTVSSASTKGPSVFPLAPSSKSTSGGTAALGCLVKDYFPEPVTVSWNSGALTSGVHTFPAVLQSSGLYSLSSVVTVPSSSLGTQTYICNVNHKPSNTKVDKRVEPKSC
chain 2: B1 light with Y2F, P8L, N25I, W34Y, S51T, S73T, N75S, V96I, L103V

Primary T cell activation assay IC50 [3]: > 0.161 µM
OX40L neutralization/OX40-HEK Reporter IC50 [1]: 0.102 µM
Kd [2]: 0.0355 µM
B4: 88B06 (FcFab) (antibody)
chain 1: EPKSSDKTHTCPPCPAPPVAGPSVFLFPPKPKDTLMISRTPEVTCVVVDVSHEDPEVKFNWYVDGVEVHNAKTKPREEQYNSTYRVVSVLTVLHQDWLNGKEYKCAVSNKALPSSIEKTISKAKGQPREPQVYTLPPSREEMTKNQVSLTCLVKGFYPSDIAVEWESNGQPENNYKTTPPVLDSDGSFFLYSKLTVDKSRWQQGNVFSCSVMHEALHNHYTQKSLSLSPGAGGGGSGGGGSGGGGSEVQLLESGGGLVQPGGSLRLSCAASGFTFSNYAMSWVRQAPGKGLEWVSVISGSGDSTYYAESVKGRFTISRDNSKNTLYLQMTSLRAEDTAEYYCAKDRTPVYGLDVWGQGTTVTVSSASTKGPSVFPLAPSSKSTSGGTAALGCLVKDYFPEPVTVSWNSGALTSGVHTFPAVLQSSGLYSLSSVVTVPSSSLGTQTYICNVNHKPSNTKVDKRVEPKSC
chain 2: SYELTQPLSVSVALGQTARISCGGNNIGRKNVHWYQQKPGQAPVLVIYGDSNRPSGIPERFSGSNSGNTATLTIGRAQAGDEADYYCQVWDSSTVFGGGTKLTVLGQPKAAPSVTLFPPSSEELQANKATLVCLISDFYPGAVTVAWKADSSPVKAGVETTTPSKQSNNKYAASSYLSLTPEQWKSHKSYSCQVTHEGSTVEKTVAPTECS

Primary T cell activation assay IC50 [3]: 0.038 µM
OX40L neutralization/OX40-HEK Reporter IC50 [1]: 0.0308 µM
Kd [2]: 0.0641 µM
B5: 95B06 (FcFab) (antibody)
chain 1: EPKSSDKTHTCPPCPAPPVAGPSVFLFPPKPKDTLMISRTPEVTCVVVDVSHEDPEVKFNWYVDGVEVHNAKTKPREEQYNSTYRVVSVLTVLHQDWLNGKEYKCAVSNKALPSSIEKTISKAKGQPREPQVYTLPPSREEMTKNQVSLTCLVKGFYPSDIAVEWESNGQPENNYKTTPPVLDSDGSFFLYSKLTVDKSRWQQGNVFSCSVMHEALHNHYTQKSLSLSPGAGGGGSGGGGSGGGGSEVQLLESGGGLVQPGGSLRLSCAASGFTFSSYAMTWVRQAPGKGLEWVSDISGSGGSTKYADSVKGRFTISRDNPKNTLYLQMNSLRAEDTAVYYCAKDLGFYSTWDTDYWGQGTLVTVSSASTKGPSVFPLAPSSKSTSGGTAALGCLVKDYFPEPVTVSWNSGALTSGVHTFPAVLQSSGLYSLSSVVTVPSSSLGTQTYICNVNHKPSNTKVDKRVEPKSC
chain 2: DMQMTQSPSSLSASVGDRVTITCRASQGIRNDLDWYQQKPGKVPKRLIHAASSLQSGVPSRFSGSGSGTEFTLTISSLQPEDFVTYYCLQHNTYPWTFGQGTKLEIKRTVAAPSVFIFPPSDEQLKSGTASVVCLLNNFYPREAKVQWKVDNALQSGNSQESVTEQDSKDSTYSLSSTLTLSKADYEKHKVYACEVTHQGLSSPVTKSFNRGEC

Primary T cell activation assay IC50 [3]: 0.0061 µM
OX40L neutralization/OX40-HEK Reporter IC50 [1]: 0.0047 µM
Kd [2]: 0.0448 µM
B6: 89B09 (FcFab) (antibody)
heavy: EPKSSDKTHTCPPCPAPPVAGPSVFLFPPKPKDTLMISRTPEVTCVVVDVSHEDPEVKFNWYVDGVEVHNAKTKPREEQYNSTYRVVSVLTVLHQDWLNGKEYKCAVSNKALPSSIEKTISKAKGQPREPQVYTLPPSREEMTKNQVSLTCLVKGFYPSDIAVEWESNGQPENNYKTTPPVLDSDGSFFLYSKLTVDKSRWQQGNVFSCSVMHEALHNHYTQKSLSLSPGAGGGGSGGGGSGGGGSEVQLVESGPGLVKPSETLSLTCTVSGVSIRSNGYYWGWIRQSPGKGLEWIGNMDYSGTYQNPSLTSRVTISGDASKNQFSLKLRSVTAADTAVYFCARERSNNWYPIDYWGQGTLVTVSSASTKGPSVFPLAPSSKSTSGGTAALGCLVKDYFPEPVTVSWNSGALTSGVHTFPAVLQSSGLYSLSSVVTVPSSSLGTQTYICNVNHKPSNTKVDKRVEPKSC
light: SSELTQDPAVSVALGQTVRITCQGDSVRRFFAHWYQQKPGQAPILVISGKDTRPSGIPDRFSGSISGNTASLTITGAQAEDEADYYCNSRDSSGYLVLFGGGTKLTVLGQPKAAPSVTLFPPSSEELQANKATLVCLISDFYPGAVTVAWKADSSPVKAGVETTTPSKQSNNKYAASSYLSLTPEQWKSHKSYSCQVTHEGSTVEKTVAPTECS
